Measured values published in patent US20130071921A1 (Pfizer, published 2013).

Tests used:
[1] = molecular target: T1, recombinant mouse Dkk-2 (R&D systems Cat No. 2435-DK/CF) (mouse, UniProt Q9QYZ8 34-259, limits assumed); experiment: ELISA, plate-coated antigen
T1 construct: Bought; also called mDkk-2
T1 sequence (looked up): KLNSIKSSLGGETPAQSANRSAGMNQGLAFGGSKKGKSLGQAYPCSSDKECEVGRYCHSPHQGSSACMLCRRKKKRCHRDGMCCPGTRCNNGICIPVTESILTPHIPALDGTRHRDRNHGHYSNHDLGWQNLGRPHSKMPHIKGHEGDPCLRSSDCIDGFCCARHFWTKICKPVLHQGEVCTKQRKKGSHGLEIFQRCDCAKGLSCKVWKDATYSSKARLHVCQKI
Experimental: Dkk-1 specific antibodies were detected using the following ELISA based method. rhuDkk-1 protein (R&D systems cat no. 1096 DK/CF) was diluted to 1 ug/ml in coating buffer (Sigma carbonate/bicarbonate coating buffer pH 9.6 Cat No. C-3041 made up according to manufacturers instructions). 100 uls of Dkk-1 was added per well to Nunc Maxisorp 96 well plates and incubated overnight at 4° C. Wells were washed 4× with 250 uls/well of wash buffer (0.05% (v/v) Tween-20 (Sigma Cat no. P2287) in dPBS without Ca/Mg++ (Sigma Cat No. D8537)) then blocked with 200 uls/well of blocking buffer (1% PVA (Sigma cat no. 363170) (weight/volume) in dPBS (Sigma cat no.D8537)) for 2 hrs at room temperature. Blocking buffer was then removed by rapid decanting. […]
(§1) Binding of the test antibody to Dkk was determined by addition of a secondary antibody specific for the antibody species. […] Once developed, the plate absorbance was measured at 405 and 490 nm. Absorbance values were presented as the difference between absorbance at both wavelengths.
The ability of JC18 to bind to other species Dkk proteins was assessed using the ELISA protocol described above with the exception that plates were also coated with recombinant rat Dkk-1(R&D systems Cat No. 4010-DK/CF), mouse Dkk-1 (R&D systems Cat No. 1765-DK/CF), mouse Dkk-2 (R&D systems Cat No. 2435-DK/CF), and mouse Dkk-4 (R&D systems Cat No. 3105-DK/CF).

[2] = molecular target: T2, Recombinant human Dkk-1 (R&D Systems cat no. 1096-DK/CF), 10xHis tag at the C terminal (human, UniProt O94907 32-266); experiment: SPR BIAcore 25C, JC18 captured by anti-mouse IgG, Dkk-1 injected
T2 construct: the actual N-terminus of the purified protein is marked in bold italic after residue 30, but the mark is an image lost in the text; also called rhuDkk-1; hDkk-1
T2 sequence: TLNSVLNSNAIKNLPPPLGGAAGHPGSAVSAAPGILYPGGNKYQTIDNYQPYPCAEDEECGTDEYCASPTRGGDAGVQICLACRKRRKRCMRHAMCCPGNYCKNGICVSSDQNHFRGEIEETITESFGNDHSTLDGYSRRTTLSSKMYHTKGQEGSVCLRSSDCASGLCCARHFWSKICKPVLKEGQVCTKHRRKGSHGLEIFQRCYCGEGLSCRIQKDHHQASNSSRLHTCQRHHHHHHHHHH
Experimental: (§2) For this assay, polyclonal anti-mouse IgG was amine-coupled to the BIAcore chip. Anti-Dkk-1 antibody JC18 is at 6.53 μg/ml, and was captured for 1 min at 5 μl/min. A five-fold series dilution of human, mouse or rat Dkk-1 (R&D Systems; from 0.4-250 nM) was injected for 1 min at 50-100 μl/min. Dissociation was monitored for 3-5 min. The chip was regenerated with two 30-sec pulses of 100 mM H₃PO₄.

[3] = molecular target: T3, recombinant mouse Dkk-1 (R&D systems Cat No. 1765-DK/CF) (mouse, UniProt O54908 32-272); experiment: as above
T3 construct: Bought
T3 sequence (looked up): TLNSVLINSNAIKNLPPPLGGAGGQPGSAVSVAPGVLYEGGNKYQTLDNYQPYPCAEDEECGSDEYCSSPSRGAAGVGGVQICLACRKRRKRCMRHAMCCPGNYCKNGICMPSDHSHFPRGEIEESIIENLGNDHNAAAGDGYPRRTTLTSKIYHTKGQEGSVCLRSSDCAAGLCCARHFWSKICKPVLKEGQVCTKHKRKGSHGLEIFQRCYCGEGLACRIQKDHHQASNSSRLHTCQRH
Experimental: as §2

[4] = molecular target: T4, recombinant rat Dkk-1 (R&D systems Cat No. 4010-DK/CF) (rat); experiment: as above
T4 construct: Bought
Experimental: as §2

[5] = molecular target: T2, Recombinant human Dkk-1 (R&D Systems …); experiment: ELISA, plate coated with human DKK-1 at 1.0 ug/ml, JC18 titrated, OD read
Experimental: Dkk-1 specific antibodies were detected using the following ELISA based method. rhuDkk-1 protein (R&D systems cat no. 1096 DK/CF) was diluted to 1 ug/ml in coating buffer (Sigma carbonate/bicarbonate coating buffer pH 9.6 Cat No. C-3041 made up according to manufacturers instructions). 100 uls of Dkk-1 was added per well to Nunc Maxisorp 96 well plates and incubated overnight at 4° C. Wells were washed 4× with 250 uls/well of wash buffer (0.05% (v/v) Tween-20 (Sigma Cat no. P2287) in dPBS without Ca/Mg++ (Sigma Cat No. D8537)) then blocked with 200 uls/well of blocking buffer (1% PVA (Sigma cat no. 363170) (weight/volume) in dPBS (Sigma cat no.D8537)) for 2 hrs at room temperature. Blocking buffer was then removed by rapid decanting. Antibodies were diluted by consecutive 2-fold serial dilutions in blocking buffer and applied to each plate at 100 ul per well. Plates were incubated for 1 hour at RT and then washed as described above.
as §1

[6] = molecular target: T5, recombinant human Dkk3 (R&D systems Cat No. 1118-DK/CF) (human, UniProt Q9UBP4 22-350); experiment: ELISA, plate coated with human DKK-3 at 1.0 ug/ml, JC18 titrated, OD read
T5 construct: Bought; also called hDkk-3
T5 sequence (Q9UBP4 22-350 limits assumed): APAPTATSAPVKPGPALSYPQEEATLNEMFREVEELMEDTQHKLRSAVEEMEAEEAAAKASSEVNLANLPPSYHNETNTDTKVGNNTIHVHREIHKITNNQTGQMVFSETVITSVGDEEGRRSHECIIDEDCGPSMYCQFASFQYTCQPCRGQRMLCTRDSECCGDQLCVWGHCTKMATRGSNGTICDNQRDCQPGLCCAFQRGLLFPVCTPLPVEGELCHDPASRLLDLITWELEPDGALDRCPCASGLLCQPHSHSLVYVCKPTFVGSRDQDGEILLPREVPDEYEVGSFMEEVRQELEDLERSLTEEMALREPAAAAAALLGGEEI

binding result [1]: no binding (tested: 5 ug/ml)
Kd [2]: 0.65 nM
koff [2]: 0.00207 s⁻¹
kon [2]: 3.18e+06 M⁻¹ s⁻¹
Kd [3]: 1.5 nM
koff [3]: 0.00254 s⁻¹
kon [3]: 1.74e+06 M⁻¹ s⁻¹
Kd [4]: 0.72 nM
koff [4]: 0.00275 s⁻¹
kon [4]: 3.8e+06 M⁻¹ s⁻¹
EC50 (read off the curve) [5]: ~3 ng/mL
binding result [6]: no binding (tested: 5 ug/ml)
B1: JC18 wildtype (mouse) monoclonal antibody (antibody, mouse IgG1, V domains shown)
VH: EVKLVESGGGLVKPGGSLKLSCAASGFTFSNYAMSWVRQTPEKRLEWVASISGGGDTYYPDSVKGRFTISRDNVRNILYLQMSSLRSEDTAMYYCATSLENYAMDYWGQGTSITVSS
VL: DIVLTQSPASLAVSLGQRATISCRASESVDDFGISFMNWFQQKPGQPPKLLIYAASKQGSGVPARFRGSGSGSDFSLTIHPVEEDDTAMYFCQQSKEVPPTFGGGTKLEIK
notes: also called muMabJC18; MabJC18
